# B1: mRNA-splicing (parent)
# chain: AGUUGCUGCUGGGAGCUCCAGCACAGUGAAAUGGACAGAAGGGCAGAGCAA
# Variants of: B1
# Assay: exon inclusion enrichment index; higher = more inclusion; WT1 exon 5 minigene, HEK293
row,Variant,exon inclusion enrichment index
1,G2C U3A C6A U7C C9A U10C,2.73
2,G2A G5U G8U C9U,0.53
3,U3G U4G G5U G8U C9U,0.0141
4,U3G U4A G5C C6U G8C C9U U10C,0.91
5,U4A G5C C6G U7G C9A,0.594
6,U3C U4C G5C C6A U7C G8A U10A,0.144
7,U3G G5A U7C G8A U10C,0.68
8,U3G U4G G5C C6G U7C U10C,0.836
9,G2C U3G G5A C6G U7G C9A,0.00533
10,U4C G5C C6U G8C C9U U10C,2.17
11,G2A C6A U7A C9A U10A,0.929
12,U3A G5C C6A U7C G8A U10A,0.475
13,U3G U4G G5A C6U U7A G8U C9A,0.0433
14,G2U U3C G5C C6G U7C U10C,5.85
15,G2A G5A U7C G8A U10C,3.39
16,U4C G5C C6G U7C U10C,3.81
17,U3G U4G C6A U7C C9A U10C,1.23
18,U4A G5C C6G U7C U10C,2.75
19,U3C G5C C6G U7C U10C,1.22
20,U4A C6G U7G C9A,0.00639
21,G2U U3G C6A U7C C9A U10C,4.84

row,Variant,exon inclusion enrichment index
1,U3A U4A G5A C6G U7G C9A,0.0117
2,G2U U3G G5A C6G U7G C9A,0.0222
3,G2A U3A G5U G8U C9U,0.155
4,U3C U4G G5C C6A U7C G8A U10A,0.239
5,U4A G5U C6G U7G C9A,0.0707
6,G2U U3C C6A U7A C9A U10A,2.31
7,G2C C6A U7C C9A U10C,2.9
8,U3A U4G G5U G8U C9U,0.143
9,U4A G5A U7C G8A U10C,2
10,U4C G5A U7C G8A U10C,3.18
11,U3A U4G G5A C6G U7G C9A,0.018
12,U3A U4A G5A U7C G8A U10C,2.15
13,U3A U4C G5A U7C G8A U10C,2.99
14,U3A G5U G8U C9U,0.513
15,G2U G5A C6G U7G C9A,0.0266
16,U4C G5U G8U C9U,0.371
17,G2U U3A G5A U7C G8A U10C,3.36
18,U4G G5A C6A U7A C9A U10A,0.315
19,U4A G5U U7C G8A U10C,2.36
20,U3C U4C G5A U7C G8A U10C,2.69
21,G2C U3C C6A U7A C9A U10A,0.779

row,Variant,exon inclusion enrichment index
1,U3C G5A C6U U7A G8U C9A,0.098
2,U4C G5C G8U C9U,0.112
3,G2A U3A G5A U7C G8A U10C,2.08
4,U4A G5A C6A U7A C9A U10A,0.0853
5,G2U U3A C6A U7A C9A U10A,1.45
6,U3G U4G G5A C6G U7G C9A,0.00966
7,G2U U3C G5C C6A U7C G8A U10A,0.619
8,U3C U4A G5C C6U G8C C9U U10C,1.61
9,U3C U4G C6A U7A C9A U10A,0.667
10,U3G U4A G5C C6A U7C G8A U10A,0.0657
11,G2A U3G G5U G8U C9U,0.0993
12,G2C G5C C6A U7C G8A U10A,0.0904
13,U3C U4G G5A U7C G8A U10C,2.97
14,U3C U4G G5C C6U G8C C9U U10C,1.28
15,U4A C6A U7C G8A U10A,0.0102
16,U3A U4A G5C C6G U7C U10C,3.05
17,U4A C6A U7C C9A U10C,1.35
18,G2C G5U G8U C9U,0.122
19,U3A U4G C6A U7C C9A U10C,1.54
20,G2C G5C C6G U7C U10C,2.87
21,U3C U4G G5C C6G U7C U10C,1.31

row,Variant,exon inclusion enrichment index
1,U3C U4A C6A U7A C9A U10A,0.528
2,U3A G5A C6G U7G C9A,0.0155
3,G2U G5C C6A U7C G8A U10A,0.329
4,G2C G5A C6G U7G C9A,0.0065
5,U3C U4A G5U G8U C9U,0.356
6,U4C G5C C6A U7A C9A U10A,1.37
7,U4C G5U C6U G8C C9U U10C,1.08
8,U4A C6G U7C U10C,0.262
9,U3A U4G G5C C6A U7C G8A U10A,0.0901
10,U4C G5U C6A U7A C9A U10A,0.296
11,U3C G5A U7C G8A U10C,1.28
12,G2A U3G G5A C6U U7A G8U C9A,0.0498
13,U4C,0.365
14,U4G,0.0792
15,U4A,0.00347
16,G2A U3G C6A U7A C9A U10A,0.935
17,G2A U3C C6A U7C C9A U10C,3.17
18,G2C U3A C6A U7A C9A U10A,0.863
19,U4A G5A C6U U7A G8U C9A,0.0542
20,G2U U3A G5A C6G U7G C9A,0.0451
21,G2U U3G G5C C6G U7C U10C,5.1
